Consider 2 substances from patent publication US20030199040A1.

Assay [1] addresses mAcPL and mIL-1Rrp1 cotransfected on cells (COS7 or S49.1) (murine) (UniProt Q61098). Description: cell-based or functional assay.
The target in assay [2] is mIL-18 (purchased from PeproTech) (murine (printed as mIL-18)) (UniProt P70380). Briefly: cell-based or functional assay.
mIL-18 (purchased from PeproTech) (murine (printed as mIL-18)), sequence (P70380 36-192 limits assumed): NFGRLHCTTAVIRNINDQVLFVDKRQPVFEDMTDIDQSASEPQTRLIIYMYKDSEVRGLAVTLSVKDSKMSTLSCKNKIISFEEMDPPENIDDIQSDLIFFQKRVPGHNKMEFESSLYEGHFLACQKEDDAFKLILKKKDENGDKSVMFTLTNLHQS

mAcPL and mIL-1Rrp1 cotransfected on cells (COS7 or S49.1) (murine), sequence (Q61098 19-537, chain 1 of 2): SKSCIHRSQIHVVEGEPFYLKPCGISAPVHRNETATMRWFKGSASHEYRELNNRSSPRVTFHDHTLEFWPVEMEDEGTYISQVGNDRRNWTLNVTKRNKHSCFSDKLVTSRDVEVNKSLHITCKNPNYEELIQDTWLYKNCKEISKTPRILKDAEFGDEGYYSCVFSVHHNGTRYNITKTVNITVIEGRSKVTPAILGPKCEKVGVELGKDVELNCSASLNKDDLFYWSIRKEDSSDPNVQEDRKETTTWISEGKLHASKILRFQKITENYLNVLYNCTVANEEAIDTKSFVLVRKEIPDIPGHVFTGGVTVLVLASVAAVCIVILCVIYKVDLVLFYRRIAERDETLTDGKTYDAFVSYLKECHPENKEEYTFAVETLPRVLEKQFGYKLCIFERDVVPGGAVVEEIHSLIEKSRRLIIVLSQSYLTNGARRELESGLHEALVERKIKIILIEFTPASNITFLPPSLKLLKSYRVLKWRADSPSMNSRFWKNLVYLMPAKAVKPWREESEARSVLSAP
mAcPL and mIL-1Rrp1 cotransfected on cells (COS7 or S49.1) (murine), sequence (chain, as listed by the source, chain 2 of 2): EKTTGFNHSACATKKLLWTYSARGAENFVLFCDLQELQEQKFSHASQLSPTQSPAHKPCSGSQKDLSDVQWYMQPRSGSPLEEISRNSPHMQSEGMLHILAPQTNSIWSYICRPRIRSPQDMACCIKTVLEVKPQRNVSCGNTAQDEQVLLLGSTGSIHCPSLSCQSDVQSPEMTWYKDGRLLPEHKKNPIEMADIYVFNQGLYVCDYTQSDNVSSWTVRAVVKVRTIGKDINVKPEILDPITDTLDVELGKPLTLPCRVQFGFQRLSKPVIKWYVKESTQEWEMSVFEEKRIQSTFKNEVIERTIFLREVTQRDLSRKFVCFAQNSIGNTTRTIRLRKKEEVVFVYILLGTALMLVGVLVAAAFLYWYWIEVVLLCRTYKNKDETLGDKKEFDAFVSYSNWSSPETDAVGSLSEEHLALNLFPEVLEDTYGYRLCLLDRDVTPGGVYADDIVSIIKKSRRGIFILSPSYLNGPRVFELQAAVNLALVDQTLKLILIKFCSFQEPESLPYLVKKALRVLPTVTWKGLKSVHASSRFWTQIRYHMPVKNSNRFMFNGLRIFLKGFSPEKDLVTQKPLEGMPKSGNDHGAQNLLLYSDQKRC

As for “mIL-18 (purchased from PeproTech) (from UniProt P70380 36-192) (ligand)”, in assay [1], the increase in NFκB DNA binding activity (NFκB-Luc luciferase reporter), COS cells, 40 ng/mL IL-18 for 4 hours worked out at 10 fold and the increase in NFκB DNA binding activity (NFκB-Luc luciferase reporter), S49.1 cells, 40 ng/mL IL-18 for 4 hours is 300 fold.

On to “heterogeneous mIL-1Rrp1-Fc+mAcPL-Fc protein mixture (homodimers of mIL-1Rrp1-Fc, homodimers of mAcPL-Fc, and heterodimeric mIL-1Rrp1-Fc/mAcPL-Fc molecules) (from UniProt Q61098 20-322; Q9Z2B1 20-356) (Fc fusion)”, for which, in assay [2], the inhibition of mIL-18 induced NFκB-luciferase activity in Cos7 cells transfected with mIL-1Rrp1 and mAcPL (10 ng/ml mIL-18 preincubated with the protein) came to 87%; the luciferase activity (RLU) at 20 ug/ml and 50 ug/ml of the protein mixture; uninduced cells 3×10e3 RLU, mIL-18 without receptor-Fc 25×10e3 RLU amounted to 6000 RLU.
